Literature values in PMC9528908.

Experiments:
[1] = target: Glu66 (UniProt position 148, FTKKMEENAKK); experiment: stability
[2] = target: Asp66 (UniProt position 148, FTKKMDENAKK); experiment: stability

Substance | pKa [1] | pKa [2]
Staphylococcal nuclease (SNase) V66E variant (Staphylococcus aureus; V66E) | 8.73–9.28 | –
Staphylococcal nuclease (SNase) V66D variant (Staphylococcus aureus; V66D) | – | 8.45–9.03
